These are literature values, as cited in paper PMC11302571.

The target of the data set is BT-R3 (Anopheles gambiae).

Consider Cry4B toxin (from UniProt P05519), for which the Kd was 0.036 µM.
